Numbering of substitutions follows the chain as printed. Numbers in names are those of the source.
Tests used:
Mouse UHRF1^ΔMW (3-782) [1] = biological target: T1, Mouse UHRF1^ΔMW (3-782) (mouse, UniProt Q8VDF2 3-782); test: cross-linking
T1 sequence: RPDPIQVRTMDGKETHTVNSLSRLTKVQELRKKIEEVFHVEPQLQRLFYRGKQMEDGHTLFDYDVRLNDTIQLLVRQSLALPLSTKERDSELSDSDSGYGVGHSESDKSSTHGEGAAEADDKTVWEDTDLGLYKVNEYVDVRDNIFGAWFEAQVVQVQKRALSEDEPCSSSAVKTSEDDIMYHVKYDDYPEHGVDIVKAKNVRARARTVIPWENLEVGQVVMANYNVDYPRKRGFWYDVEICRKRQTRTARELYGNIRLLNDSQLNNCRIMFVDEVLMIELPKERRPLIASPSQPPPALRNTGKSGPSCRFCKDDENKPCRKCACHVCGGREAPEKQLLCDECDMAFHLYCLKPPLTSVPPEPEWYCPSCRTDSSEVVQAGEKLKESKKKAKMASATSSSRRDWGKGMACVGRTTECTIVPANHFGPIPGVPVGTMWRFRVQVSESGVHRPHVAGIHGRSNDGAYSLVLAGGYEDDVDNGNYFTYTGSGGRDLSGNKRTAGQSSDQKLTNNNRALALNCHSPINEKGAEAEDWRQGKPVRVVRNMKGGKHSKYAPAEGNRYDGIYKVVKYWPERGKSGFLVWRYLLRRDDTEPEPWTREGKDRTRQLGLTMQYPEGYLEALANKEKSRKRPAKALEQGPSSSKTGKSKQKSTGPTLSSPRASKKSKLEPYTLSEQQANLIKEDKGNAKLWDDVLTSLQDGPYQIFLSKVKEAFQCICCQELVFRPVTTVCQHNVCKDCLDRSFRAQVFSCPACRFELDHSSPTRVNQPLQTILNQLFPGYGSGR

[2] = biological target: T2, Mouse UHRF1 (1-782), wild-type with the native N terminus (mouse, UniProt Q8VDF2 1-782); test: cross-linking
T2 sequence: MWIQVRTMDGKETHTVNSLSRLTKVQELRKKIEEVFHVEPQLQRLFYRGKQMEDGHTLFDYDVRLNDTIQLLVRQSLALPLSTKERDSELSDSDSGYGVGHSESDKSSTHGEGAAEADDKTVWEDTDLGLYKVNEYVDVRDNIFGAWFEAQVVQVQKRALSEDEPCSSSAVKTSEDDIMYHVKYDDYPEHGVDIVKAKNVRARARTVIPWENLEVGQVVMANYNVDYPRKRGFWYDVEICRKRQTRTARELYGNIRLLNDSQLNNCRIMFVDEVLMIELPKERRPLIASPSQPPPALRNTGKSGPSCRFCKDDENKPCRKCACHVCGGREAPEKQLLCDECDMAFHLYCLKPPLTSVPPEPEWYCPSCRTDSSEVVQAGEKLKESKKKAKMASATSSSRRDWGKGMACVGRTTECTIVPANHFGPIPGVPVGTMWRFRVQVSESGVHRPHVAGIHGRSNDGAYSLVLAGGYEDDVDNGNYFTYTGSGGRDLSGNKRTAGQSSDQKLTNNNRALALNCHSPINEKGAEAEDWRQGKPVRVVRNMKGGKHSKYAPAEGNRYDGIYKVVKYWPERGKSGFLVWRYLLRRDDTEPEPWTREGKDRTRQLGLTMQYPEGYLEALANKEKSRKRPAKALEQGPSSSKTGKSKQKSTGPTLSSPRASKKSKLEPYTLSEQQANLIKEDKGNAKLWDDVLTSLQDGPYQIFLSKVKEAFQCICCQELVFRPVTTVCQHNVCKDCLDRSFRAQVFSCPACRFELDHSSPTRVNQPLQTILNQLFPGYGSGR

[3] = biological target: T2, Mouse UHRF1 (1-782), wild-type with the …; test: pull-down
Mouse UHRF1^ΔMW (3-782) [4] = biological target: T1, Mouse UHRF1^ΔMW (3-782); test: pull-down
[5] = biological target: T3, Mouse UHRF1 (1-782) F46A point mutant (mouse, UniProt Q8VDF2 1-782, F46A); test: pull-down
T3 sequence: T2 sequence with F46A

B1: UbcH5a (human UBE2D1), without GST (enzyme)
chain: not shown
binding result (Mouse UHRF1^ΔMW (3-782) [1]): binds
binding result [2]: binds

B2: GST-UbcH5a S22R (human UBE2D1 S22R) (enzyme)
chain: not shown
binding result [3]: binds

B3: GST-UbcH5a (human UBE2D1, wild-type) (enzyme)
chain: not shown
binding result (Mouse UHRF1^ΔMW (3-782) [4]): binds
binding result [5]: binds
binding result [3]: binds
